Test [1] has as its target human C-X-C chemokine receptor 2 (CXCR2) (human) (UniProt P25025). The test can be described thus: flow cytometry, Alexa Fluor-488-conjugated control IgG1 on fixed HMC-1 cells (80 µg/ml per paragraph 49).
The target is the same in test [2]. The test can be described thus: flow cytometry, Alexa Fluor-488-conjugated control IgG1 on fixed Panc-1 cells (80 µg/ml per paragraph 49). A general note: A flow cytometer gives signals particle by particle.
The target is the same in test [3]. The test can be described thus: flow cytometry, Alexa Fluor-488-conjugated control IgG1 on fixed MiaPaCa II cells (80 µg/ml per paragraph 49).
In test [4] the target is T1, CXCR2 antigen peptide (NICR2 peptide) (human, not fully specified).
T1 construct: The immunogen was this peptide conjugated with ovalbumin at its C-terminus ('-C-Ovalbumin')
T1 peptide: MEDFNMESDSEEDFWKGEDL
The test can be described thus: SPR (Biacore), antibody flowed over the NICR2 peptide, Langmuir 1:1 fit. The text has this: Equilibrium affinity and rate constants derived from a Langmuir 1:1 binding kinetic analysis. The interactions between the humanized anti-CXCR2 mAb and the CXCR2 antigen peptide (NICR2 peptide) were detected by using SPR. The humanized anti-CXCR2 mAb flowed through the CXCR2 antigen peptide (NICR2 peptide) at the indicated concentrations. Data were corrected for nonspecific background binding. All data are representative of three independent experiments. […] Data shown is representative of 3 independent experiments.
The binding affinity of the humanized anti-CXCR2 monoclonal antibody (NICR2-5) was further investigated by surface plasmon resonance (SPR) Biacore technique. […] The binding of the humanized anti-CXCR2 mAb (NICR2-5) to cell surface receptor was analyzed by flow cytometry. Control IgG1 or humanized anti-CXCR2 mAb (NICR2-5) were conjugated with Alexa Fluor-488 fluorescent dye. Cancer cells were fixed with 3.5% formaldehyde for 15 min at room temperature. Fixed cells were incubated with fluorescent dye-conjugated IgG1 (80 μg/ml), or different concentrations of humanized anti-CXCR2 mAb (NICR2-5) (0, 40, 80 μg/ml) at 4° ° C. for 1 h. Cells were washed with phosphate-buffered saline (PBS) three times and subjected to flow cytometric analysis by using Attune NxT Flow Cytometer.
(Surface plasmon resonance follows binding to a sensor surface in real time, without labels.)

The term Kd denotes the concentration at which binding is half-saturated.

Chain of human C-X-C chemokine receptor 2 (CXCR2) (human) (P25025 whole entry): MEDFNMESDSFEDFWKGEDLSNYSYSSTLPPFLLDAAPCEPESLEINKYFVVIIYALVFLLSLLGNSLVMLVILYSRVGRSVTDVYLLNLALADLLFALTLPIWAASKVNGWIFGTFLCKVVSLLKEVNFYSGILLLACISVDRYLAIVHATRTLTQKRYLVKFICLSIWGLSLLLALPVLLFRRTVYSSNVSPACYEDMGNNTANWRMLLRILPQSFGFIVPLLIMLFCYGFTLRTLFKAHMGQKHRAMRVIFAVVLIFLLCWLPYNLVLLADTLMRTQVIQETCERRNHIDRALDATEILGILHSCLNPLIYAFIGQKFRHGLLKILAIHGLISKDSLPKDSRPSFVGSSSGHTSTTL

For the molecule hIgG (antibody), the Gated (%) in test [1] amounted to 6.6%; in test [2] it was 8.2%; in test [3], 9.3%.

B1: humanized anti-CXCR2 monoclonal antibody (NICR2-5) (antibody, human IgG1, kappa, V domains shown)
VH: QITLKESGPTLVKPTQTLTLTCTFSGFSLRTSGMGVGWIRQPPGKALEWLAHIWWDDDKRYKPDLKSRLTITKDTSKNQVVLTMTNMDPVDTATYYCARLGLRLRTMDYWGQGTLVTVSS
VL: DIVMTQTPLSLSVTPGQPASISCRSSLSLVHSNGDTYLHWYLQKPGQSPQLLIYKVSNRFSGVPDRFSGSGSGTDFTLKISRVEAEDVGVYYCSQSTHVPTFGQGTKLEIKR
notes: CDRs cloned into human IgG1 vector; Conjugated with Alexa Fluor-488 for flow cytometry; also called anti-CXCR2 mAb; humanized anti-CXCR2 mAb (NICR2-5)
For B1, in test [4], binding was put at a Kd of 0.3 nM. This counts as sub-nanomolar.

The values are drawn from patent US20240166756A1 (KAOHSIUNG MEDICAL UNIVERSITY, published 2024).
